In PMC12282144 (Journal of Virology, 2025):

What was measured:
[1] = target: T1, N-terminal GST-tagged soluble ectodomain of NRP2 (aa 17-865) (human, UniProt O60462 17-865); assay: pull-down; conditions: both partners purified
T1 construct: not shown: GST, N-terminal, kept
T1 sequence: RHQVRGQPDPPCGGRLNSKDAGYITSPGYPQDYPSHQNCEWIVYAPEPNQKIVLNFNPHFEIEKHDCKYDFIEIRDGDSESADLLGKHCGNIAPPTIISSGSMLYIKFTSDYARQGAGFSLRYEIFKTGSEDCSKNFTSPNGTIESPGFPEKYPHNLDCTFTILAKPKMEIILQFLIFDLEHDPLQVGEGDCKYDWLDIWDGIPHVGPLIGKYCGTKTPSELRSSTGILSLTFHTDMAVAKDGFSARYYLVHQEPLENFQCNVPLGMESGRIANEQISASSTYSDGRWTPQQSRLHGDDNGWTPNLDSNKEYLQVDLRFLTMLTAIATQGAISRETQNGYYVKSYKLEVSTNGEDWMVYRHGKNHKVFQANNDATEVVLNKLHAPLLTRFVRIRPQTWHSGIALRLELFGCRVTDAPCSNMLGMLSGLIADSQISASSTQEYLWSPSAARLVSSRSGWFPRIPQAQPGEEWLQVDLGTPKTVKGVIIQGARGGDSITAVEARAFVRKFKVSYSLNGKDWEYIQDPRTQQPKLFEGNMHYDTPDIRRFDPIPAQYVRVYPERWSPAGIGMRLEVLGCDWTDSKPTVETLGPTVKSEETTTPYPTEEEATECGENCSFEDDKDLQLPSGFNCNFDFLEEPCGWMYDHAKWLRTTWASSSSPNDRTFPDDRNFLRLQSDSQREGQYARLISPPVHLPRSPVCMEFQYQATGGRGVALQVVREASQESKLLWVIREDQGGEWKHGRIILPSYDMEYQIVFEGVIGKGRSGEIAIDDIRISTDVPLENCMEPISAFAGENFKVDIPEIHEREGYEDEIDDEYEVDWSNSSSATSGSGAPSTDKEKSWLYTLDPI

[2] = target: T2, recombinant Fc-tagged NRP2 ectodomain (human, UniProt O60462 21-864); assay: […] (10, 20 or 50 µL, […]) in 0.2 mL PBS for 2 h; […]; conditions: both partners purified
T2 construct: not shown: Fc, C-terminal, kept
T2 sequence: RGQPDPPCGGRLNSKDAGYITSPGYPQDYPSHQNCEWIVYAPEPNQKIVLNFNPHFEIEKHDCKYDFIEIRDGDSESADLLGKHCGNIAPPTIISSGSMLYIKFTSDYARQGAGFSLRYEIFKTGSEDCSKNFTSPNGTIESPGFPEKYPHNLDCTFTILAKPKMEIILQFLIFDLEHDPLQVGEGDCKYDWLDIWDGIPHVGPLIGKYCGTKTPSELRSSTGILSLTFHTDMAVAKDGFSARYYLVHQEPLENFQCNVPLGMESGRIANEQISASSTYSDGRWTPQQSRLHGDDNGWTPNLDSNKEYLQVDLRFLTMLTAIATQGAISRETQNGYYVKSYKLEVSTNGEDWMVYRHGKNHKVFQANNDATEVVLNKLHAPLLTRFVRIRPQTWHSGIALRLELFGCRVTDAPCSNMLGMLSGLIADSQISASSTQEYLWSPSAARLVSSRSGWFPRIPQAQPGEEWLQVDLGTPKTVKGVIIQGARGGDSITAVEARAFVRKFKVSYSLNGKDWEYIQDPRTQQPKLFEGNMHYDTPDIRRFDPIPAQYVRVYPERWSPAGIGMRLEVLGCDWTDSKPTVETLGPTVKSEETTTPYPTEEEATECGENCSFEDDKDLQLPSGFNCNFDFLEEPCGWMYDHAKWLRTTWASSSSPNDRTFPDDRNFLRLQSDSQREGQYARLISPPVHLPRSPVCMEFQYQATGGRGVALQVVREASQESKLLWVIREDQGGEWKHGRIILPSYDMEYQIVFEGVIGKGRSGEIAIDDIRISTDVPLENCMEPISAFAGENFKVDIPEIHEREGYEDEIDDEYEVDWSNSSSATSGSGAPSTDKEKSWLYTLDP

B1: RABV G on purified ERA(G/Flag) particles (natural protein)
chain: KFPIYTILDKLGPWSPIDIHHLSCPNNLVVEDEGCTNLSGFSYMELKVGYILAIKMNGFTCTGVVTEAETYTNFVGYVTTTFKRKHFRPTPDACRAAYNWKMAGDPRYEESLHNPYPDYRWLRTVKTTKESLVIISPSVADLDPYDRSLHSRVFPSGKCSGVAVSSTYCSTNHDYTIWMPENPRLGMSCDIFTNSRGKRASKGSETCGFVDERGLYKSLKGACKLKLCGVLGLRLMDGTWVAMQTSNETKWCPPDQLVNLHDFRSDEIEHLVVEELVRKREECLDALESIMTTKSVSFRRLSHLRKLVPGFGKAYTIFNKTLMEADAHYKSVRTWNEILPSKGCLRVGGRCHPHVNGVFFNGIILGPDGNVLIPEMQSSLLQQHMELLESSVIPLVHPLADPSTVFKDGDEAEDFVEVHLPDVHNQVSGVDLGLPNWGKYVLLSAGALTALMLIIFLMTCCRRVNRSEPTQHNLRGTGREVSVTPQSGKIISSWESHKSGGETRL
[1]
  binding result: binds
[2]
  binding result: binds
